Laboratory results reported in patent US12723255B2, “Herbicide tolerance genes and methods of use thereof” (priority 2014, dated 2026).
Several values for one entry are separate records, joined by “and”; a condition that tells them apart may be missing. Equal entries are not always repeated.

B1: MON-HT55: engineered oxygenase protein, amino acid sequence SEQ ID NO:11 (protein)
chain: MHAALSPLSQRFERIAVQPLTGVLGAEITGVDLREPLDDSTWNEILDAFHTYQVIYFPGQAITNEQHIAFSRRFGPVDPVPLLKSIEGYPEVQMIRREANESGRVIGENWHTDSTFLDAPPAAVVMYAKEIPPYGGDTLFTSMYTAWETLSPTMQATIEGLNVVHSATRVFGSLYQAQNRRFSNTSVKVMDVDAGDRETVHPLVVTHPETGRKGLYVNQVYCQRIEGMSEKESEPLLSFLFAHATKPEFTCRVRWQEGDVLVWDNLCTQHYAVPDYAGKFRYLTRTTVGGVRPAR
B2: MON-HT1: engineered oxygenase protein, amino acid sequence SEQ ID NO:14 (protein)
chain: MHAALTPLTNKYRFIDVQPLTGVLGAEITGVDLREPLDDSTWNEILDAFHTYQVIYFPGQAITNEQHIAFSRRFGPVDPVPILKSIEGYPEVQMIRREANESSRFIGDDWHTDSTFLDAPPAAVVMRAIEVPEYGGDTGFLSMYSAWETLSPTMQATIEGLNVVHSATKVFGSLYQATNWRFSNTSVKVMDVDAGDRETVHPLVVTHPVTGRRALYCNQVYCQKIQGMTDAESKSLLQFLYEHATKFDFTCRVRWKKDQVLVWDNLCTMHRAVPDYAGKFRYLTRTTVAGDKPSR

What was measured:
transgenic maize plants = test: R1 green house quizalofop-P spray test; format: in vivo; conditions: R1 maize with CTP; quizalofop-P 1× at V2; eleven days after treatment
Description: Plant transformation vectors were constructed each comprising a recombinant DNA molecule encoding one of three engineered proteins with the protein-coding sequence optimized for monocot expression, MON-HT51 (SEQ ID NO:3), MON-HT52 (SEQ ID NO:6), and MON-HT55 (SEQ ID NO:13). The vectors were created using different combinations of promoter, leader, intron, and 3′UTR and with and without a CTP operably linked to the protein-coding sequence. Also included in the vectors was a second DNA cassette comprising a cp4-EPSPS coding sequence to be used in transgenic plants for glyphosate tolerance. Immature maize (LH244) embryos were transformed with these vectors using Agrobacterium tumifaciens and standard methods known in the art. Regenerated R0 transgenic plantlets were grown in the green house and sprayed at approximately V2-V4 growth stage with 0.04 or 0.08 lb ai/acre quizalofop-P (AssureTM II, E.I. DuPont), representing 0.5× and 1× rates, respectively. Leaf samples were used to identify transgenic plants with a single copy of the transgenic DNA insert (that is, single event plants). […]
R1 plants expressing MON-HT55 with and without an operably linked CTP were grown in the green house and quizalofop-P herbicide was applied at the V2 growth stage at a rate of 0.08Ib ac/acre (1×). Plants were evaluated for injury eleven days after treatment.

F1 hybrid maize plants [1] = test: plant-based assay for heat sensitivity, quizalofop-P tolerance; format: in vivo; conditions: 2× quizalofop-P, ten days post treatment, 0 no visible injury, 5 dead plants
Protocol: A plant-based enzyme activity assay for heat sensitivity was used to determine the effect of elevated growth temperatures on the herbicide tolerance of transgenic plants containing the optimized engineered proteins. To test for quizalofop-P tolerance at elevated growth temperatures, F1 hybrid (produced by crossing an R1 homozygous plant expressing one of the MON-HT proteins with inbred maize event MON89034) maize seed was grown in a growth chamber for 10 days at a day temperature of 28° C. and a night temperature of 20° C. with 50% humidity. After 10 days, the plants were moved to acclimate for 3 days at one of three different day and night temperature regimens: (1) both day and night temperatures set at 20° C.; (2) day temperature at 28° C. and night temperature at 20° C.; or (3) day temperature at 38° C. and night temperature at 30° C. At the end of the acclimation period, the plants were generally at V4 growth stage and were sprayed with 2× quizalofop-P. Ten days post treatment the plants were scored for injury on a rating scale of 1 to 5 where ‘0’ is no visible injury observed, ‘1’ is chlorotic speckling, ‘2’ is chlorotic streaking, ‘3’ there are leaf gaps or tears, ‘4’ are plants with stunted growth and/or twisted leaves, and ‘5’ are dead plants or no growth observed. […] (FIG. 4A) or 28° C./20° C. […]

F1 hybrid maize plants [2] = test: maize green house tolerance to synthetic auxins; format: in vivo; conditions: 'A' CTP, Events 1-3 in columns
[3] = system: transgenic soybean plants; test: R0 soybean 2,4-D spray test of 2,4-D optimized variants; format: in vivo
Description: An additional five engineered proteins optimized for activity for 2,4-D were then selected for analysis in transgenic soybean. DNA constructs were produced for expressing MON-HT13 (SEQ ID NO:47), MON-HT14 (SEQ ID NO:48), MON-HT15 (SEQ ID NO:49), MON-HT17 (SEQ ID NO:51), and MON-HT18 (SEQ ID NO:52) with codon usage optimized for dicot expression. The operably linked expression elements (promoter, leader, intron, CTP, and 3′UTR) were identical in all of the constructs. Leaf samples were taken from R0 plantlets and single copy plants were identified using a PCR-based assay. When the single-copy R0 plants had approximately two to three trifoliate leaves, they were treated with either 1.5 lb ae/acre (2×) or 3.0 lb ae/acre (4×) of 2,4-D. Seven days after herbicide application, the plants were scored for herbicide injury based on the percent area of the plant showing injury, as indicated above.

[4] = enzyme activity assay at 23° C. with purified enzyme; format: biochemical
Protocol: The enzyme activity of MON-HT protein variants with triclopyr, fluroxypyr, MCPA, MCPB, mecoprop, as substrates was determined using the enzyme activity assay conducted at 23° C. with purified enzyme. The activity was recorded as the maximum activity as a percentage of the wild-type RdpA enzyme's activity, which was set at 100%. […] The enzymatic activity with mecoprop as a substrate was reduced for each of the MON-HT1, MON-HT13, MON-HT15, and MON-HT17 variants compared to the wild-type RdpA enzyme. An unexpected result was that enzymatic activity with MCPA as a substrate was roughly 6-fold greater for MON-HT1, and approximately 10-fold greater for MON-HT13, MON-HT15, and MON-HT17 compared to the wild-type RdpA enzyme.

[5] = percentage of wild-type RdpA, set at 100%

Row | Molecule | injury scores (transgenic maize plants) | injury rating (F1 hybrid maize plants [1]; day/night 20° C./20° C. or 28° C./20° C.) | injury rating (F1 hybrid maize plants [1]; day/night 38° C./30° C.) | Average maize % crop injury for 4 reps, fluroxypyr (F1 hybrid maize plants [2]; 4X rate 1680 g ae/ha) | Average maize % crop injury for 4 reps, triclopyr (F1 hybrid maize plants [2]; 4X rate 1680 g ae/ha) | Average maize % crop injury for 4 reps, MCPA (F1 hybrid maize plants [2]; 4X rate 3360 g ae/ha, listed as MON-HTl) | Events with <20% injury ([3]; 2,4-D rate 2X (1.5 lb ae/acre), single copy R0 soy, seven days after application) | tolerance to 2,4-D treatment ([3]; 2× application rate, soy) | activity with MCPB as the substrate [4] | enzymatic activity with MCPA greater compared to the wild-type RdpA enzyme [4] | activity with fluroxypyr as the substrate ([4]; not robust enough to quantify) | activity with triclopyr as the substrate ([4]; not robust enough to quantify) | MCPA Km [4, 5] | MCPA Vmax [4, 5] | Mecoprop Km [4, 5]
1 | B1 | ≤ 5% | around 2 | 3 | – | – | – | – | – | – | – | – | – | – | – | –
2 | B2 | – | – | – | 20.0% and 21.3% | 26.3% and 37.5% and 35.0% | 20% | 12 | excellent tolerance | no detectable activity | roughly 6 fold | detectable activity | detectable activity | 21% | 600% | 142%
